This note sets out measurements from patent publication KR20230108156A (dated 2023).

In assay [1] the target is T1, CD40L induced on T cells of human PBMC stimulated with PMA and ionomycin (human, UniProt P29965 1-261).
T1 construct: whole, on cells
T1 sequence (looked up): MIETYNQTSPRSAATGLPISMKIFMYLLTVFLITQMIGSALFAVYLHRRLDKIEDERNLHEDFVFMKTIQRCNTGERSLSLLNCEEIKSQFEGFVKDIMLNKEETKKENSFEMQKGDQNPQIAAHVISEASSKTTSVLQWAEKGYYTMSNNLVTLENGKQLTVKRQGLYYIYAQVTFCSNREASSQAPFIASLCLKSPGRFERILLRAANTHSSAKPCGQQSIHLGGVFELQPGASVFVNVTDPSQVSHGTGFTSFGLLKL
As to the kind of experiment: flow cytometry on PMA/ionomycin-stimulated human PBMC, 0.1 μg, CD3-APC gate, anti-mouse Ig-FITC. A general note: In flow cytometry, cells or beads pass a laser one at a time.

Assay [2] addresses T2, CD40 on CD40 표면발현 CHO 세포 (CHO cells expressing CD40 on the surface, ATCC) (UniProt P25942 21-277, limits assumed).
T2 construct: whole, on cells; also called CD40 CHO 세포
Briefly: flow cytometry on CD40 CHO cells, goat anti-mouse Ig-FITC.

Assay [3] deals with CD40L-hFc 단백질 (Sino biological, Accession#: NP_000065.1, Cat: 10239-H01H) (human) (UniProt P29965). As to the kind of experiment: competition, flow cytometry: 14D6 pre-mixed with CD40L-hFc (2 μg), binding to CD40 on Bjab cells read.
The target of assay [4] is T3, CD40L in lysates of Jurkat cells and HeLaS3 cells (32 ~ 39 kDa band) (human, UniProt P29965 1-261).
T3 construct: Denatured protein on a PVDF membrane
T3 sequence (looked up): T1 sequence (looked up)
As to the kind of experiment: western blot of Jurkat and HeLaS3 lysates, reducing and non-reducing, 14D6 0.5 μg/ml. On the technique in general: In western blotting, separated proteins are transferred to a membrane and probed.

Assay [5] addresses 재조합 인간 CD40L 단백질 (recombinant human CD40L protein, Sino biological, Accession#: NP_000065.1, Cat: 10239-H08E) (human) (UniProt P29965). Briefly: ELISA, plate coated with recombinant human CD40L 100 ng/well, 14D6 two-fold dilutions from 1000 ng/ml, anti-mouse IgG-HRP. For orientation: An ELISA detects its analyte on a solid surface through an enzyme-linked reagent.
Assay [6] concerns the target CD40L on CD40L 표면발현 CHO 세포 (CHO cells expressing CD40L on the surface, ATCC) (UniProt P29965). As to the kind of experiment: flow cytometry on CD40L CHO cells, 0.01-0.5 μg/test.
In assay [7] the target is 재조합 인간 CD40L 단백질 (recombinant human CD40L protein, Sino biological, Accession#: NP_000065.1, Cat: 10239-H08E) (human) (UniProt P29965). Briefly: cell-based or functional assay.
In assay [8] the target is CD40L on CD40L 표면발현 CHO 세포 (CHO cells expressing CD40L on the surface, ATCC) (UniProt P29965). Briefly: cell-based or functional assay.

Where only a bound is given, the exact number is not on record here.

T2 sequence (P25942 21-277 limits assumed): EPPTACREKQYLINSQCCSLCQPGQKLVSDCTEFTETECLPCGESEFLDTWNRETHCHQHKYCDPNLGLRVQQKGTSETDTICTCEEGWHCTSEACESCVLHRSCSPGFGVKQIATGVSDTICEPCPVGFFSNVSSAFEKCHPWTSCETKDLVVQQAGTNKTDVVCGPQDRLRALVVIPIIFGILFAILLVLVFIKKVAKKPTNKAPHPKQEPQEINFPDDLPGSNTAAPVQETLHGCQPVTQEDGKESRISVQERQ

B1: 14D6-52-5 단일클론항체 (14D6 단클론항체, mouse) (antibody, V domains shown)
VH: QVQLQQSGAELVKPGASVKLSCKASGYTFTRYYMFWVKQRPGQGLEWIGEINPTNGDTNFNEEFKSKATLTVDKSSSTAYMQLSSLTSEDSAVYYCTRPLGSRDAMDYWGPGTSVTVSS
VL: DIVLTQSPASLAVSLGQRATISCRASQSVSSSRYSYMHWYQQKPGQPPKLLIKYASSLESGVPARFSGSGSGTDFTLNIHPVEGEDTATYYCQHSWELPWTFGGGTKLEIK
notes: Mouse monoclonal antibody from a hybridoma (Balb/c mouse immunised with recombinant human CD40L); also called 14D6 마우스항체; Mouse 14D6
Consider B1, for which the values for the binding result in assay [1], in assay [2] and in assay [4] were “binds”, “no binding (tested: 0.05μg/test)” and “binds”, respectively. The amount at which blocking equals the negative control in assay [3] was > 0.1 µg. The concentration at which binding is saturated is > 0.1 μg/50μl in assay [3] and > 100 ng/mL in assay [5]. Also, the amount at which binding is saturated in assay [6] is > 0.1 µg. Moreover, the antibody concentration for complete blocking of SEAP OD 655nm (HEK-Blue CD40L cells), CD40L 12.5ng/ml in assay [7] is > 50 ng/mL. For the same molecule, the antibody concentration for complete blocking of SEAP OD 655nm (HEK-Blue CD40L cells), CD40L printed as 12.5ng/ml a second time (25ng/ml probably meant) in assay [7] is > 500 ng/mL. In assay [8], the ICAM-1 expression on Ramos B cells co-cultured with CD40L CHO cells (flow cytometry) was > 0.5 μg/test.
